Results: paper PMC4834876

Molecular target: Taxol-stabilised microtubules of porcine brain tubulin (porcine) (UniProt P02550)
Experiment: co-sedimentation

Sequence of EB1 full-length (end-binding protein 1), wild type (Q15691 whole entry): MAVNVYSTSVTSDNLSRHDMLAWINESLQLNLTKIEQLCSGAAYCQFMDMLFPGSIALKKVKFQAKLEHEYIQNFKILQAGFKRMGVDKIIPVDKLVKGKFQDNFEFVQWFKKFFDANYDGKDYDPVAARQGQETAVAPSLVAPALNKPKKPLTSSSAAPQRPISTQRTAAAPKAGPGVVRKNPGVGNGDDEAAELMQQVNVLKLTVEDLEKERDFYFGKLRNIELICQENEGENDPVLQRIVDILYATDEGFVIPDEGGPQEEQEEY

percent bound: 50%
Substance: EB1 full-length (end-binding protein 1), wild type (from UniProt Q15691 1-268) (natural protein)
